According to paper doi:10.1101/2023.01.07.523072:

Target: RPN13 pru domain (Arabidopsis thaliana) (UniProt O48726)
Assay: ITC

Chain of UniProt O48726 (O48726 9-121): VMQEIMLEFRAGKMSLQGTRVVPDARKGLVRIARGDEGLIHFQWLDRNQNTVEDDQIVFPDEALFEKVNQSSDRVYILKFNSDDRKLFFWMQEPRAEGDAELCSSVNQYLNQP

## TTOP UBL domain (from UniProt F4K1H0 1-879) (domain or fragment)
  Kd: 29 µM
  stoichiometry N: 1
